From publication PMC9175492

Assays:
[1] = target: proteins in FBS (bovine (fetal bovine serum)); assay: fluorescence polarisation
[2] = target: LgBit, an 18-kDa subunit of NanoLuc; assay: split reporter

Substance | Kd [1] [µM] | fold induction of luminescence at 10 μM [2] [fold]
TMR-labeled CPP12 (peptide) | 27 | 
NF-labeled CPP12 (peptide) | 1.3 | 
CPP12-HiBit conjugate (peptide) |  | 200
FITC-labeled CPP12 (peptide) | 29 | 
